The term kcat/Km denotes the turnover number divided by the Michaelis constant. The term Km denotes the substrate concentration at which the rate is half of its maximum. By kcat is commonly meant the maximal rate divided by the concentration of active sites.

Data set [1] addresses Metallothiol transferase FosB (Staphylococcus aureus) (UniProt Q5HDM4). Kind of data set: Inhibition of Staphylococcus aureus FosB using L-cysteine as substrate by absorbance based DTNB assay.
The subject of data set [2] is CC(C)[C@H](O)P(=O)(O)O. Briefly: (§1) Binding affinity to Staphylococcus aureus FosB using L-cysteine as substrate assessed as Kcat/Km by DTNB assay based michaelis-menton analysis (reference value: 10.33 /mM/s).
Data set [3] relates to C[C@@H](C(=O)O)P(=O)(O)O. Described as §1.
For data set [4], the system named is O=C(O)CP(=O)(O)O. Described as §1.
The subject of data set [5] is C[C@H](CO)P(=O)(O)O. The description is as §1.
The subject of data set [6] is CC[C@@H](O)P(=O)(O)O. Described as §1.
The test system of data set [7] is CC(C)[C@H](O)P(=O)(O)O. Kind of data set: (§2) Binding affinity to Staphylococcus aureus FosB using L-cysteine as substrate assessed as Km by DTNB assay based michaelis-menton analysis (reference value: 0.29 +/- 0.03 mM).
Data set [8] relates to C[C@@H](C(=O)O)P(=O)(O)O. Described as §2.
Data set [9] deals with O=C(O)CP(=O)(O)O. The description is as §2.
The test system of data set [10] is C[C@H](CO)P(=O)(O)O. The data set is described as §2.
Data set [11] relates to CC[C@@H](O)P(=O)(O)O. Described as §2.
Data set [12] deals with CC(C)[C@H](O)P(=O)(O)O. Briefly: (§3) Binding affinity to Staphylococcus aureus FosB using L-cysteine as substrate assessed as catalytic constant by DTNB assay based michaelis-menton analysis (reference value: 2.95 /s).
Data set [13] deals with C[C@@H](C(=O)O)P(=O)(O)O. Described as §3.
Data set [14] relates to O=C(O)CP(=O)(O)O. The description is as §3.
For data set [15], the system named is C[C@H](CO)P(=O)(O)O. The description is as §3.
For data set [16], the system named is CC[C@@H](O)P(=O)(O)O. The description is as §3.

The source made the active and inactive calls. The rule behind the calls is not given here.

Chain of Metallothiol transferase FosB (Staphylococcus aureus) (Q5HDM4 whole entry): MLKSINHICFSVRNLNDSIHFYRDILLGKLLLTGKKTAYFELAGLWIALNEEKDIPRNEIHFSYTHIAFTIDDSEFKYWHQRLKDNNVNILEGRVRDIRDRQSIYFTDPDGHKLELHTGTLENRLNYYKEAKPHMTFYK
Chain of Metallothiol transferase FosB (Staphylococcus aureus), Q5HDM4 (Q5HDM4 whole entry): as above

Consider `CC(C(=O)O)C(=O)O`, for which, in data set [1], the inhibition entry was “inactive”.
Turning to `O=C(O)CCP(=O)(O)O`, the inhibition result in data set [1] is “inactive”.
Consider `O=P(O)(O)CCP(=O)(O)O`, for which, in data set [1], the inhibition result is “inactive”.
On to “Metallothiol transferase FosB (Staphylococcus aureus), Q5HDM4”, for which the kcat/Km is 11200 M⁻¹ s⁻¹ in the data set with CC(C)[C@H](O)P(=O)(O)O [2]; 11400 M⁻¹ s⁻¹ with C[C@@H](C(=O)O)P(=O)(O)O [3]; 11800 M⁻¹ s⁻¹ in the data set on O=C(O)CP(=O)(O)O [4]; 10600 M⁻¹ s⁻¹ with C[C@H](CO)P(=O)(O)O [5]; 11400 M⁻¹ s⁻¹ with CC[C@@H](O)P(=O)(O)O [6]. Moreover, the Michaelis constant (Km) with CC(C)[C@H](O)P(=O)(O)O [7] was 250 µM; in the data set on C[C@@H](C(=O)O)P(=O)(O)O [8], 250 µM; with O=C(O)CP(=O)(O)O [9] it was 240 µM; in the data set with C[C@H](CO)P(=O)(O)O [10], 270 µM; in the data set with CC[C@@H](O)P(=O)(O)O [11], 250 µM. For the same compound, the catalytic constant (kcat) was determined as 2.84 s⁻¹ with CC(C)[C@H](O)P(=O)(O)O [12]; 2.84 s⁻¹ with C[C@@H](C(=O)O)P(=O)(O)O [13]; 2.83 s⁻¹ in the data set on O=C(O)CP(=O)(O)O [14]; 2.91 s⁻¹ in the data set with C[C@H](CO)P(=O)(O)O [15]; 2.82 s⁻¹ in the data set on CC[C@@H](O)P(=O)(O)O [16].

The values above are taken from ChEMBL document CHEMBL5346942, “Identification and analysis of small molecule inhibitors of FosB from Staphylococcus aureus” (RSC Med Chem, 2023).
